The test system of this experiment is citrated whole blood (CWB). In words: Interference testing for Rapidpoint ENOX test in citrated whole blood. Format: biochemical. To be noted: for EFFECT on ENOX test: CWB; for sensitivity of the ENOX test to the agent: in vitro, citrated whole blood.

From US6680177B2, “Low molecular weight heparin assay, system and reagent therefor” (Cardiovascular Diagnostics, Inc., priority 2001, dated 2004) come the findings set out here.

Changes are numbered by the printed parent chain.

B1: Abciximab (antibody, chains of the INN, looked up, V domains shown)
VH: EVQLQQSGTVLARPGASVKMSCEASGYTFTNYWMHWVKQRPGQGLEWIGAIYPGNSDTSYIQKFKGKAKLTAVTSTTSVYMELSSLTNEDSAVYYCTLYDGYYVFAYWGQGTLVTVSA
VL: EIVLTQSPVTLSVTPGDSVSLSCRASRDISNNLHWFQQTSHESPRLLIKYASQSMSGIPSRFSGSGSGTDFTLSINSVETEDFGMYFCQQTNSWPYTFGGGTKLEIK
modifications: Fab
notes: antiplatelet agent tested as interferent
With B1, the “sensitivity of the ENOX test to the agent” value (shortened to “sensitivity of the ENOX test”) is “insensitive”. Also, the “EFFECT on ENOX test” value (0-3600 ng/ml) is reported as “No effect at 0-3600 ng/ml”.

B2: Alteplase (protein, UniProt P00750 36-562, looked up)
Tissue-type plasminogen …: SYQVICRDEKTQMIYQQHQSWLRPVLRSNRVEYCWCNSGRAQCHSVPVKSCSEPRCFNGGTCQQALYFSDFVCQCPEGFAGKCCEIDTRATCYEDQGISYRGTWSTAESGAECTNWNSSALAQKPYSGRRPDAIRLGLGNHNYCRNPDRDSKPWCYVFKAGKYSSEFCSTPACSEGNSDCYFGNGSAYRGTHSLTESGASCLPWNSMILIGKVYTAQNPSAQALGLGKHNYCRNPDGDAKPWCHVLKNRRLTWEYCDVPSCSTCGLRQYSQPQFRIKGGLFADIASHPWQAAIFAKHRRSPGERFLCGGILISSCWILSAAHCFQERFPPHHLTVILGRTYRVVPGEEEQKFEVEKYIVHKEFDDDTYDNDIALLQLKSDSSRCAQESSVVRTVCLPPADLQLPDWTECELSGYGKHEALSPFYSERLKEAHVRLYPSSRCTSQHLLNRTVTDNMLCAGDTRSGGPQANLHDACQGDSGGPLVCLNDGRMTLVGIISWGLGCGQKDVPGVYTKVTNYLDWIRDNMRP
modifications: alteplase
notes: fibrinolytic agent tested as interferent
B2: the “sensitivity of the ENOX test” value is given as “insensitive”. Further, for the setting “1000-3200 ng/ml”, the “EFFECT on ENOX test” value was “No effect at 1000-3200 ng/ml”.

B3: Tenecteplase (protein, UniProt P00750 36-562, looked up, variant T103N N117Q K296A H297A R298A R299A)
Tissue-type plasminogen …: B2 Tissue-type plasminogen … with T103N, N117Q, K296A, H297A, R298A, R299A
modifications: tenecteplase
notes: as for B2
For B3, the “sensitivity of the ENOX test” value is given as “insensitive”. In addition, the “EFFECT on ENOX test” value (0-10,000 ng/ml) is reported as “No effect at 0-10,000 ng/ml”.
